Biological target: DNMT1 (human, UniProt P26358 1-1616)
Assay: EMSA; SAM 20-fold excess + GSK3852279B 5-fold excess; no substantial change in binding; EMSA: 25 mM Tris-HCl pH 7.5, 40 mM NaCl, 20% glycerol, 1 mM DTT, 0.5 mM MgCl2, overnight at room temperature; covalent assay: 25 mM Tris-HCl pH 7.5, 20 mM KCl
Conditions: protein: recombinant; tags: N-terminal Flag-6xHis-TEV site; blunt

Sequence of DNMT1 (P26358 whole entry): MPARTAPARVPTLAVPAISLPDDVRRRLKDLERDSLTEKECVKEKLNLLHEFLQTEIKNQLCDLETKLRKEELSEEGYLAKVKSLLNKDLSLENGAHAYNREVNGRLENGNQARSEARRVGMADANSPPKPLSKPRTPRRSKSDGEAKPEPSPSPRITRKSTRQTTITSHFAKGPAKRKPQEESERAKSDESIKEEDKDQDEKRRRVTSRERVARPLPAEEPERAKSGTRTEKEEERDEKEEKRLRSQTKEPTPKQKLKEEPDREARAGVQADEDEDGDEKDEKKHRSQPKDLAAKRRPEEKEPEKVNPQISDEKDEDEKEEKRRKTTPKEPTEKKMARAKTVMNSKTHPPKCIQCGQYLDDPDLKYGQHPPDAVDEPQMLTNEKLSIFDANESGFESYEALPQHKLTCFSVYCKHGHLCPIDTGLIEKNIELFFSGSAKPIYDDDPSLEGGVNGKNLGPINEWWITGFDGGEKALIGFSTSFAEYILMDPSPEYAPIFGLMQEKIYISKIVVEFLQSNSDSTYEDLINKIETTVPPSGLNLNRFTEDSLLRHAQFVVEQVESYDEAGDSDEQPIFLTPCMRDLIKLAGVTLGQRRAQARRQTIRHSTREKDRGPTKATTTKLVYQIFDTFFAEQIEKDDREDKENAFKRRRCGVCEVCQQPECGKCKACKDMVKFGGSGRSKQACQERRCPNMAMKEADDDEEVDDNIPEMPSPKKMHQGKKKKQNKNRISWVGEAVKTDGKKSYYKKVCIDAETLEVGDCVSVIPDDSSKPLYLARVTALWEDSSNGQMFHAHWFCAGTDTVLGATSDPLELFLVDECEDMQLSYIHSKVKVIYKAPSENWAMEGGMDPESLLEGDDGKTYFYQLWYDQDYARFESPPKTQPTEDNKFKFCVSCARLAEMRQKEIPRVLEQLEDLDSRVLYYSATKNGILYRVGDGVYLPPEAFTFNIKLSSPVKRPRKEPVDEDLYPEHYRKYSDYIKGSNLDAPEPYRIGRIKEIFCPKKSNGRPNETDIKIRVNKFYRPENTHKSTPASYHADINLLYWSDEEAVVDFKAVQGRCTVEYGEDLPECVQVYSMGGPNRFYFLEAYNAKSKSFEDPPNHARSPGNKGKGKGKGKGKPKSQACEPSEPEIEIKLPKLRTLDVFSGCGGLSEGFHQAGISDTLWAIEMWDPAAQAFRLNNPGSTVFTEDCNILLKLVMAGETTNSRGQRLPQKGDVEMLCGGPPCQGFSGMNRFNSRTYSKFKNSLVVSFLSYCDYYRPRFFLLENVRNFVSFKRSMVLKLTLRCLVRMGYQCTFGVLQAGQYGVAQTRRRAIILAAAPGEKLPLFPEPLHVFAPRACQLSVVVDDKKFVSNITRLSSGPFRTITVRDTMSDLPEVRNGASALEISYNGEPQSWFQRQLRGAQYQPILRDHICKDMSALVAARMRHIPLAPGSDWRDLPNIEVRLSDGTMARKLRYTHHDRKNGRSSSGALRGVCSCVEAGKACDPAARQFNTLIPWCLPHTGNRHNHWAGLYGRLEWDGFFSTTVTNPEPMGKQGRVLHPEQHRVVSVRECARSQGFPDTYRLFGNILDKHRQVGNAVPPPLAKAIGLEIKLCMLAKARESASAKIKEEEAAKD

B1: 26 bp hemi-methylated DNA (dsDNA)
DNA 1: TGGAGTCGAGGCCGCCTGCGCAGGAC
DNA 2: GTCCTGCGCAGGCGGCCTCGACTCCA
modifications: 5-methyl-dC at position 13 of strand 1
  binding result: binds

Source: article PMC11371216, “Structural insight into the DNMT1 reaction cycle by cryo-electron microscopy”
